Data set [1] can be described thus: Formulation protocols and long term stability in 60% Detergent-1 under accelerated ageing. The data set is classed as physicochemical. To be noted: 1M KCl, sequential mixing of NI and IC into 60% Detergent-1. On the procedure:
FIG. 12 illustrates comparison of alternative protocols to detergent formulate NI and IC and evaluated formulations for long term stability. Two formulation protocols as follows were compared: 1) formulation by sequential mixing of unsalted NI and IC to the detergent (detergent+NI+IC) and 2) formulation of KCl stabilized (NI+IC) premix to detergent. Detergent-1 was used at 60% (v/v) in two formats, either without supplement (−), or KCl supplement was added to 1M final concentration (+). Purified NI and IC were each used at benchmarking conc. to 1% (v/v) Savinase, at 38.1 μmolar concentration each. (NI+IC) premix was prepared and formulated to the detergent essentially as described in Example 7. Formulations were stored at 37° C. under accelerated ageing conditions and storage stabilities were tested by assaying retention of dilution inducible iProtease activity over 8 weeks at t=0, 1, 3, 6 and 8 weeks in storage. Dilution inducible activity was assayed in sequential dilutions to assay buffer, from 40- to 5120-fold dilutions as described in Example 7. iProtease activities at the 2 min time point reads of the 1:1280-fold dilutions were normalized to dilution induced iProtease activity of the (NI+IC) premix in detergent without salt at t=0 and were plotted.

The nature of data set [2]: Protease activity of KCl stabilized (NI+IC) premix and Savinase assayed in KCl. The format is biochemical. To be noted: formulated to 1M KCl aqueous buffer, diluted in KCl. On the procedure:
iProtease activity was benchmarked to 1% (v/v) Savinase. Formulation of (NI+IC) and Savinase to 1M KCl aqueous buffer was the same as in Example 1, but enzyme activity was assayed in 2M KCl as follows: In a clear flat-bottomed half-volume 96 well plate, row A wells were preloaded with […] pH˜9.0, 50 μl 4 M KCl, and 35 μL H2O. Rows B-H were preloaded with 5 μl 1×BR buffer pH˜9.0, 25 μL 4 M KCl, and 20 μL H2O. 5 μl (NI+IC) formulation was added to row A, mixed by pipetting, then 50 μL of this 20× diluted sample was added to the 50 μl salt, buffer, and water in row B and mixed. […] This process of 2× serial dilutions was repeated for rows C-H. All samples were diluted an addition 2× by adding 50 μL 500 μM suc-FAAF-pNA (in 20% DMSO) substrate, yielding samples diluted from 40× in row A to 5120× in row H. Protease activity was assayed by reading absorbance at 400 nm at 30° C. FIGS. 9A-9B illustrate that KCl stabilized (NI+IC) premix has no enzyme activity. FIG. 9A illustrates iProtease activity of the 80-fold diluted (NI+IC) premix. […].

Data set [3] can be described thus: Stability of dilution inducible protease activity in three detergents under accelerated ageing. To be noted: Savinase without the stabilizer (dialyzed), 37° C., up to 4 weeks. The format is physicochemical. On the procedure:
Detergents were: Detergent-1, Detergent-2 and Detergent-3. For benchmarking 1% (v/v) Savinase was used, but instead of formulating the inhibitor stabilized form, the inhibitor was first removed by three steps of overnight dialysis of 0.5 mL Savinase against 5 L mTSB buffer at 4° C. using a Tube-O-Dialyzer Medi (4000 Da; GBiosciences). Volume of dialyzed Savinase in mTSB were adjusted to 1.5 mL, and 3 μL dialyzed aliquot treated with equal volume of 4M KCL was used to formulate 100 μL detergent to get 1% (v/v) of the Savinase. Sample handling was essentially the same as in Example 8, except that formulations were made to 65% detergents supplemented with KCL to 1M final conc.
Purified NI and IC were used at equimolar conc. to 1% (v/v) dialyzed Savinase, at […] concentration each. (NI+IC) premix in 2M KCl was prepared as described in Example 7, and formulations were made to 65% detergents supplemented with KCl to 1M final conc.
Detergent formulations were stored under accelerated ageing conditions at 37° C. Residual protease activities were assayed at five time points, at t=0, 1, 2, 3, and 4 weeks, in serial dilutions to assay buffer as described before. The 2 min reads of 1:2560-fold dilutions of each formulation was normalized to the t=0 as 100% and graphed. […]

Data set [4] in a line: Stability of stain removal activity in three detergents under accelerated ageing. To be noted: 37° C., up to 4 weeks, normalized to t=0. As for the experimental part:
Formulations made for Example 15 were stored under accelerated ageing conditions at 37° C., and were evaluated for stain removal activity at five time points, at t=0, 1, 2, 3, and 4 weeks in storage.
The blood/milk/ink stained fabric of EMPA 117 was used in wash tests as described in Example 15. FIG. 17 illustrates stain removal stability under accelerated ageing conditions in three detergents. Three replicate washes were performed from each formulation at each time point. Referring to this figure, white light reflectance of the washed EMPA117 fabrics were normalized to their corresponding t=0 samples and were graphed.

Data set [5] can be described thus: Suppression of protease activity in Detergent-1 formulations. The format is biochemical. To be noted: formulations in Detergent-1.

Results on 2 molecules are retold here after patent US10731143B2, “Methods and compositions for stabilizing trans-splicing intein modified proteases” (AGRIVIDA, INC., priority 2014, dated 2020).

Consider `[Cl-].[K+]` [KCl, potassium chloride], for which the “boost of dilution inducible iProtease activity by supplementing the detergent” value in data set [1] is listed as “approximately 3 fold”.

B1: Savinase: extracellular alkaline protease from Bacillus lentus (Uniprot P29600), SEQ ID NO: 6; Novozymes stock, intein unmodified reference enzyme (protein, listed as Bacillus lentus)
chain: MKKPLGKIVASTALLISVAFSSSIASAAEEAKEKYLIGFNEQEAVSEFVEQVEANDEVAILSEEEEVEIELLHEFETIPVLSVELSPEDVDALELDPAISYIEEDAEVTTMAQSVPWGISRVQAPAAHNRGLTGSGVKVAVLDTGISTHPDLNIRGGASFVPGEPSTQDGNGHGTHVAGTIAALNNSIGVLGVAPSAELYAVKVLGASGSGSVSSIAQGLEWAGNNGMHVANLSLGSPSPSATLEQAVNSATSRGVLVVAASGNSGAGSISYPARYANAMAVGATDQNNNRASFSQYGAGLDIVAPGVNVQSTYPGSTYASLNGTSMATPHVAGAAALVKQKNPSWSNVQIRNHLKNTATSLGSTNLYGSGLVNAEAATR
modifications: (1)..(380) Savinase P29600
Take B1: in data set [2], the “effect of 1M KCl on protease activity” value was “did not inhibit protease activity”. Also, the “loss of initial enzyme activity” value in data set [3] was 25-70%. Besides, the “stain removal activity after storage” value in data set [4] is “full stain removal activity”. Besides, the “effect of Detergent-1 on protease activity” value in data set [5] is “did not suppress”.
